Results taken from the nanobody polyreactivity screen of Harvey et al. (2022).

Assay: yeast display, Sf9 membrane polyspecificity reagent, FACS + sequencing; frameworks hold sequencing errors
Procedure, shortened: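 Polyreactivity labels are assigned by the sorting gate from which each nanobody was recovered. The gates were low and high (top ~1%), set on anti-HA fluorescence for expression and streptavidin fluorescence for reagent binding. Before sorting, galactose-induced (36–48 hours) yeast display cells were stained for 1 hour at 4 °C with 10% biotinylated, detergent-solubilized Sf9 membrane reagent.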

Sequence | polyreactivity (PSR sort gate)
QVQLVESGGGLVQAGGSLRLSCAASGLTFWGYAMGWYRQAPGKEREFVASISSGGGSTYYADSVKGRFTISRDNAKNTVYLQMNSLKPEDTAVYYCNADRTQDRNPYTYATFDYWGQGTQVTVSS | low polyreactivity
QVQLVESGGGLVQAGGSLRLSCAASGSTFNKYAMGWYRQAPGKERELVAAIRSNGVRTYYADSVKGRFTISRDNAKNTVYLQMNSLKPEDTAVYYCNKRYTYRYDYWGQGTQVTVSS | high polyreactivity
QVQRVESGGGLVQAGGSLRLSCAASGRIFWYYAMGWYRQAPGTERQLVAAITSGGRTNFADSVKGRFTISSDNAKNSVYLQMNSLKPEDTAVYYCAAGYYNYLYRLRDQDFDYWGQGTQVTVSS | high polyreactivity
QVQLVDSGGGLVQAGGSLRLSCAASGFIFKGNAMGWSRQAPGKERELVAAISRSGGRTYYADSVKGRFTISRENAKNTVYLEMNSLKPEDTAVYYGATEGDSFSAYDYWVQGTQVTVSS | high polyreactivity
QVQLVESGGGLVQAGGSLRLTWAASGFILGYYAMGWYRQAPGKERELLPGISRSGGSTYYADSVKGRYTISRDNAKNTVYLQMNSLKPEDTSVYYCAKYPPYYTAYGWKYVYWGQGTQVTLSS | high polyreactivity
QVQLVESGGGLVQAGGSLRLSCAASGYTFVGYAMGWYRQAPGKERELVASISTGDSTYYADSVKGRFTISRDNAKNTVYLQMNSLKPEDTAVYYCAADFWEYEYPYDYWGQGTQVTVSS | low polyreactivity
QVQLVESGGGLVQAGGSLRLSCAASGNIFTTYAMGWYRQAPGKERELVAAISRTGGRTSYADSVKGRFTISRDNAKNTVYLQMNSLKPEDTAVYYCAAVPTVRPSAPRARILSDYWGQGTQVTVSS | high polyreactivity
QVQLVESGGGLVQAGGSLRLSCAASGFIFIRYAMGWYIQAPGKERELVASSTGRGGSTYYADSVKVRFTISRDNAKNTVYLQMNSLKPEDTAVYYCAAYYRYPTGWRWGGYYLYDYWGQGTQVTVSS | high polyreactivity
QVQLVESGGGLVQAGGSLRLSCAASGRIFFYYAMGWYRQAPGKERELVATISYSGGGTYYADSVKGRFTISRDNAKNTVYLQMNSLKPEDTAAYYCNARWGTPYYIQDFDYWGQGTQVTVSS | low polyreactivity
QVQLVESGGGLVQAGGSLRLSCAASGSNFQYYGMGWYRQAPGKERELVASISRSGGSTYYADSVKGRFTISRDNAKNTVYLQMNSLKPEDTAVYYCNAKEAIRRTHLTTTYRDGYWGQGTQVTVSS | low polyreactivity
QVQLVESGGGLVQAGGSLRLSCDASGFNIASYDMGWYRQAPGKERELVAAISKGGGRTYYADSVKGRFTISRDNAKNTVYLQMKSLKPEDTAVYYCAAYAPYPRRAYDYWGQGTQVTVSS | low polyreactivity
QVQLVESGGGLVQAGGSLRLSCAASGLTFYRYAMGLYRQAPGKERELVAGITRRGGSTYYADSVKGRFTISRDNAKNTVYLQMNSLKPEDTSVYYCNVDGISSSYPELDYWGQGTQVTVSS | low polyreactivity
QVQLVDSGGGLVQAGGSLRLSCGASGFIIARNAMGGYRHPPGKERELVAAISRNGGRTSYADSVKGRFTISRDTAKNTVYLQMNSLNPEDTAVYYCAKAQGYVTWTGAYAYDYWGQGTQVTVSS | high polyreactivity
QVQLVESGGGLVQAGGSLRLICAASGSTFKRYAMGWYRQAPGKERELVAAISLSSGSTYYADSVKGRFTISRDNAKNTVYLQMNSLKPEDTAVYYCNAAKTYPDVYEYDYWGQGTQVTVSS | high polyreactivity
QVQLVESGGGLVQAGGSLRLSCAASGGTFYTNVMGWYRQAPGKERELVAAITRSGGSTHYADSVKGRFTISRDNAKNTVYLQMNSLKPEDTAVYYCAKDRVGEMYYWGQGTQVTVSS | low polyreactivity
QVQLVESGGGLVQAGGSLRLSCAASGRTFSLYAMGWYRQAPGNDRELVAAISYNGGRTYYADSVKGRFTISRDNAKNTVYLQLNCLKQDDTAVYYCAADHGDPGGYDYWGQGTQVTVSS | high polyreactivity

Sequence | polyreactivity (PSR sort gate)
QVQLVESGGGLVQAGGSLRLSCAASGSTFPKYAMGWYRQAPGKERELVASISVTTGSTYYADSVKGRFTISRDNAKNTVYLQMNSVKPEDTAVYYCAARRGWGDDYWGQGTQVTVSS | high polyreactivity
QVQLVESGGGLVQAGGSIRLSCSASGSTFNIYAMGWYRKAPGKERELVAAISGNGDRTYYADSVKGRFTISRDNAKNTVYLQMTSLKPEDTAVYYCAAKYYGWGQGTQVTVSS | high polyreactivity
QVQLVESGGGLVQAGGSLRLSCADSGRTFYHDTMGWYRQAPGKERELVARITRRVGSTYYADSVKGRFTISRDNAKNTVYLQMNSLKPEDTAVYYCNAKSGLYRYLLDYWGQGTQVTVSS | high polyreactivity
QVQLVESGGGLVQAGGSLRLTSAGSGRIFVPYAMGCYRQAPGKERELVATITFGGGRTYYADSVKGRFTISRDNAKTTVFLQMNSLKPEDTAVYYCNAEGWYSVEYDYWGQGTQVTVSS | low polyreactivity
QVHLVESGGRLVLAGGSLRLSCAASRRIFDLNAMRGYIQAPGKERELFAAITNTGSTNYADSVKGRFTISRDNAKNTVYLQMNSLKPEDTAVYYCARTYWLRYFGYRDDEYDYWGQGTQVTVSS | low polyreactivity
QVQLVESGGGLVQAGGSLRLSCAASGSTFYANVMGWYRQAPGKDRELVGAIEGSGGRTDYADSVKGRFTISRDNAKNTVYLQMHSLKPEDTAVYYCAKKRIVPVKQFGRDYNYWGQGTQVTVSS | high polyreactivity
QVQLVESGGGLVQAGGSLRLSCAPSGFIFWRNAMGWYRQAPGKEREFVAAITSSGGRTYYADSVKGRFTISRDNAKNTVYLQMNSLKPEDTAVYYCAAEIRDYAKSYSFYWGQGTQVTVSS | high polyreactivity
QVQLVESGGGLVQAGGSLRLSCAASGSTFADYTMGWYRQAPGKERELSTSYADSVKGRFTISRDNAKNTVYLQMNSLKPEDTAVYYCAAETFYDYGGYDYWGQGTQVTVSS | low polyreactivity
QVQLVESGGGLVQAGGSLRLSCAASGLIFGSYVMGWYRQAPGKERELVAAISSSGGSTYYADSVKVRFTISRDNENNTFYLQMNSLKPEDTAVYYCAARYTYSADKGYYWGQGTQVTVSS | high polyreactivity
QVQLVESGGGLVQAGGSLRLSCAASGFTFRNYAMGWYIQAPGKERELVATISWSGTSTYYADSVKGRFTISRDNAKNTVYLQMNSLKPEDTAVYYCAARGRHSGYYSFPYYYWGQGTQVTVSS | low polyreactivity
QVQLVESGGGLVQAGGSLRLSCAASGSTLARYTMGWYRQAPGKERELVATIDFGGVNTYYADSVKGRFTISRDTAKNTVYLQMNSLKPEDTAVYYCAAYNRLKRNVLYDYWGQGTQVTVSS | low polyreactivity
QDQLVDSGGGLVQAGGSLRLSCAASGLSFDLYDMGWYRQAPGKERELVAAIDWSATRTYYADSVKGRFTISRDNAKNTVYLQMNSLKPEDPAVYYCNAEAVYEYWIYDYWGQGTQVTLSS | high polyreactivity
QDQRVDSGGGLVQAGGSLRLSCAASGSNFQWNAMGSYRHATGKERELVAAISGTGGNTYYADSVKGRFTISRDNAKNTVYLQMNSLKREDTAVYYCNTDYGEYYSWYLQWWYIPFDYWGQGTQVTVSS | low polyreactivity
HVQLQESGGGLVQAGGSLRLSCAASGSNFRWSPMGWYRLAPGKEREFVAGINRGGITNYADSVKGRFTSSRDNAKNTVYLQMNSLKPEDTALYYCAAIAYPDLPTYFDYDSDYFYRGQGTQVTVSS | low polyreactivity
QVQLVESGGGLVQAGGSLRLSCAASGSILYWYAMGWYRQAPGKERELVAAITSSGDSTDYADSVKGRFTISRDNAKKTVYLQMNILKPEDSAVYYCNVQPVYADHFTEFDYCGQGTQVTVSS | low polyreactivity
